Results on 1 molecule are retold here after patent US20240270857A1 (CHIA TAI TIANQING PHARMACEUTICAL GROUP, published 2024).

The target in experiment [1] is T1, human IL-36R overexpressed on 293T-hIL36R-NFκB cells (human, UniProt Q9HB29 20-575).
T1 sequence: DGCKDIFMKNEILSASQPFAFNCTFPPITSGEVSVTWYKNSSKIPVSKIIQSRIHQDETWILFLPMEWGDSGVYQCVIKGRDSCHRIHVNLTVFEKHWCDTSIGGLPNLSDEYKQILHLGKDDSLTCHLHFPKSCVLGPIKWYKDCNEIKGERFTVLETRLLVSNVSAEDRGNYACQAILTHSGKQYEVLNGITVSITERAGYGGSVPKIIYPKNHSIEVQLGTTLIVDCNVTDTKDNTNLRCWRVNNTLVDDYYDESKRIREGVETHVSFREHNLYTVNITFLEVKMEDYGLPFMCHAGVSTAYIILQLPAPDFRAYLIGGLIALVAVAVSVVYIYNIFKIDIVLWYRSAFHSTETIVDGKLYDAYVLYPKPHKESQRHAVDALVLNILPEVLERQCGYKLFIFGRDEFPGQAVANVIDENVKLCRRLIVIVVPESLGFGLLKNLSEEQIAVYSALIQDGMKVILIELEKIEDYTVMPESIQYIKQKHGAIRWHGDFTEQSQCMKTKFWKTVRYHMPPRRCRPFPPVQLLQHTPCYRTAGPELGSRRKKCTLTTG
Briefly: cell-based or functional assay.

Experiment [2] deals with T2, IL-36R naturally expressed on OVCAR8 cells and on normal human epidermal keratinocytes (NHK cells) (human, UniProt Q9HB29 20-575).
T2 sequence (looked up): T1 sequence
Briefly: cell-based or functional assay.

For experiment [3], the target named is T1, human IL-36R overexpressed on …. Description: cell-based or functional assay. The source holds these as a separate data set.
Experiment [4] concerns the target T2, IL-36R naturally expressed on OVCAR8 …. Briefly: cell-based or functional assay. The source holds these as a separate data set.
Experiment [5] has as its target T1, human IL-36R overexpressed on …. Briefly: FACS on 293T-hIL36R-NFκB cells, ratio of MFI to background MFI. Here is the method:
After the cells was washed with PBS, the cells were resuspended with 100 μL of PBS and then the fluorescence signal was detected using a flow cytometer (BD, Accuri C6). […] The ratio was the ratio of mean fluorescence intensity (MFI) of the experimental group/the background MFI, and the resulting data were analyzed using GraphPad Prism.

Experiment [6] deals with T2, IL-36R naturally expressed on OVCAR8 …. Description: cell-based or functional assay. The source holds these as a separate data set.
Experiment [7] addresses T3, Human IL-1Rrp2/IL-1R6 protein, His Tag (ACROBiosystems, IL2-H52H6) (human, UniProt Q9HB29 20-335).
T3 construct: Bought protein; the soluble protein is likely only the extracellular part; also called hIL-36R; human IL36R antigen; not shown: His tag
T3 sequence: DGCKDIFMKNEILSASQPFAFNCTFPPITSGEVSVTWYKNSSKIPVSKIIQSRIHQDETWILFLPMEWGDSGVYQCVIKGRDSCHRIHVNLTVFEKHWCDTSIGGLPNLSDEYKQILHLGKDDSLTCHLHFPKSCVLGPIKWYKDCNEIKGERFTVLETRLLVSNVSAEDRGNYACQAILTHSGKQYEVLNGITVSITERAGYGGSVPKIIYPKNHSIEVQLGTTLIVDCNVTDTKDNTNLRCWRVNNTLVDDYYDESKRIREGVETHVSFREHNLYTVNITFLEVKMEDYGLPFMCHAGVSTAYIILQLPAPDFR
Briefly: BLI (ForteBio Octet), antibody on ProA sensor, 1:1 model. Here is the method: The affinity of anti-IL-36R antibodies to CynoIL36R-ECD mFc and human IL-1Rrp2/IL-IR6 protein, His Tag (ACROBiosystems, IL2-H52H6) was measured by a ForteBio molecular interaction instrument. […] And then the biosensor was used to bind CynoIL36R-ECD mFc or human IL-1Rrp2/IL-1R6 protein, His Tag which was diluted by a gradient (the initial concentration was 200 nM, 2-fold gradient dilution), the response signals were detected in real time using a Fortebio molecular interaction instrument (SARTORIUS, octet red 96e), and association and dissociation curves were obtained. After the completion of dissociation in each cycle, the biosensor was regenerated for the next capture; the procedure was repeated until the affinity of the different anti-IL-36R antibodies for IL-36R was determined. The resulting data were analyzed by Fortebio Data Analysis 11.0 software in a 1:1 (Langmuir) binding model to determine kₐ (kₒₙ) and kd (koff) values, and the dissociation constant KD was calculated by KD=kd/kₐ. The detection method essentially followed the manufacturer's recommendations, and more information could be found at www.fortebio.com.
Background: BLI is a label-free optical method that tracks binding on a fibre tip over time.

Experiment [8] deals with T1, human IL-36R overexpressed on …. Briefly: cell-based or functional assay. This is another data set of the same source.

B1: chimeric 74B4D6 antibody (antibody, human IgG4 S228P, kappa, V domains shown)
VH: EVQLQQPGAELGKPGASVKMACKASGYTFTNYWIHWVKQRPGQGLEWIGTIDPSENYTNYNQKFKGKATLTVDTSSSTAYMQLSSLTSEDKAVYFCTGSSFSYWGQGTLVTVSA
VL: QNVLTQSPAIMSVSPGEKVTMTCSASSSVSFIHWFQQKPGTSPKLWIYTTSNLASGVPARFSGSGSGTSYSLTISRMEAEDAATYYCQQRSSYPLTFGAGTKLELKR
notes: Mouse variable regions on human IgG4 / kappa; also called xi74B4D6
One may read the EC50 as the concentration giving half of the maximal effect. Usually Kd stands for the equilibrium constant for the complex coming apart. High values mean lower affinity, low ones higher affinity. One may read the koff as the rate constant with which the complex falls apart. A high value points to fast dissociation. Usually kon stands for the second-order rate constant of association. A high value points to fast association. Take B1: the “IC50; NFκB-luciferase reporter in 293T-hIL36R-NFκB cells stimulated with hIL36α, inhibition rate %” value in experiment [1] was 12.9 nM. Also, the “IC50; IL-8 production of OVCAR8 cells stimulated with hIL36β, inhibition rate %” value in experiment [2] is 0.972 nM. In addition, in experiment [3], the “IC50; NFκB-luciferase reporter in 293T-hIL36R-NFκB cells stimulated with hIL36β, inhibition rate %” value is 21.5 nM. For the same molecule, in experiment [4], the “IC50; IL-8 production of OVCAR8 cells stimulated with hIL36α, inhibition rate %” value turned out to be 0.73 nM. Besides, in experiment [5], the EC50 amounted to 15.5 nM. The “IC50; IL-8 production of OVCAR8 cells stimulated with hIL36γ, inhibition rate %” value in experiment [6] was found to be 1.05 nM. In experiment [7], this molecule displayed a Kd of 4.72 nM, a koff of 0.000332 s⁻¹ and a kon of 70400 M⁻¹ s⁻¹. In addition, the “IC50; NFκB-luciferase reporter in 293T-hIL36R-NFκB cells stimulated with hIL36γ, inhibition rate %” value in experiment [8] amounted to 25.4 nM.
